Test results as given in patent US20050112126A1 (Genentech, published 2005).

Target: T1, VEGF (human, UniProt P15692-4 27-191, limits assumed)
T1 construct: Biotinylated in the KDR-IgG ELISA, amine-coupled to the chip in BIAcore; also called biotinylated VEGF; vascular endothelial growth factor
Assay: competitive phage-ELISA, relative to pY0192
Protocol: In such an assay, phages were first serially diluted to determine a fractional saturation titer which was then held constant and used to incubate with varying concentrations of VEGF (starting at 200 nM to 0 nM) in solution. The mixture was then transferred onto plate precoated with VEGF (2 μg/mL) and blocked with 5% instant milk, and allowed to equilibrate for 1 hour at room temperature. Thereafter, the phage solution was removed and the remaining bound phages were detected with a solution of rabbit anti-phage antibody mixed with goat anti-rabbit conjugate of horse radish peroxidase. After an hour incubation at room temperature, the plate was developed with a chromogenic substrate, o-phenylenediamine (Sigma). The reaction was stopped with addition of ½ volume of 2.5 M H₂SO₄. Optical density at 492 nm was measured on a spectrophotometric plate reader.
IC50's were determined in a competitive phage-ELISA assay.

T1 sequence (P15692 other isoform, or with tags, fused parts or gaps limits assumed): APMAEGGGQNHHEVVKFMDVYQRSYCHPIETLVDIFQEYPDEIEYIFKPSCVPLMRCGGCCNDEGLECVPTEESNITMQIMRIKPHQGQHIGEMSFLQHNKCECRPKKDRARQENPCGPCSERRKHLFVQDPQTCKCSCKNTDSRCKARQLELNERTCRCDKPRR

Row | IC50 (mut)/IC50 (wt) | Binder
1 | > 150 | pY0192 VL W96A (Fab, V domains shown) VH: EVQLVESGGGLVQPGGSLRLSCAASGYTFTNYGINWVRQAPGKGLEWVGWINTYTGEPTYAADFKRRFTFSLDTSKSTAYLQMNSLRAEDTAVYYCAKYPHYYGSSHWYFDVWGQGTL VL: DIQLTQSPSSLSASVGDRVTITCRANEQLSNYLNWYQQKPGKAPKVLIYFTSSLHSGVPSRFSGSGSGTDFTLTISSLQPEDFATYYCQQYSTVPATFGQGTKVEIKR
2 | > 150 | pY0192 VH Y32A (Fab, V domains shown) VH: EVQLVESGGGLVQPGGSLRLSCAASGYTFTNAGINWVRQAPGKGLEWVGWINTYTGEPTYAADFKRRFTFSLDTSKSTAYLQMNSLRAEDTAVYYCAKYPHYYGSSHWYFDVWGQGTL VL: DIQLTQSPSSLSASVGDRVTITCRANEQLSNYLNWYQQKPGKAPKVLIYFTSSLHSGVPSRFSGSGSGTDFTLTISSLQPEDFATYYCQQYSTVPWTFGQGTKVEIKR
3 | > 150 | pY0192 VH N52A (Fab, V domains shown) VH: EVQLVESGGGLVQPGGSLRLSCAASGYTFTNYGINWVRQAPGKGLEWVGWIATYTGEPTYAADFKRRFTFSLDTSKSTAYLQMNSLRAEDTAVYYCAKYPHYYGSSHWYFDVWGQGTL VL: DIQLTQSPSSLSASVGDRVTITCRANEQLSNYLNWYQQKPGKAPKVLIYFTSSLHSGVPSRFSGSGSGTDFTLTISSLQPEDFATYYCQQYSTVPWTFGQGTKVEIKR
4 | > 150 | pY0192 VH N31A (Fab, V domains shown) VH: EVQLVESGGGLVQPGGSLRLSCAASGYTFTAYGINWVRQAPGKGLEWVGWINTYTGEPTYAADFKRRFTFSLDTSKSTAYLQMNSLRAEDTAVYYCAKYPHYYGSSHWYFDVWGQGTL VL: DIQLTQSPSSLSASVGDRVTITCRANEQLSNYLNWYQQKPGKAPKVLIYFTSSLHSGVPSRFSGSGSGTDFTLTISSLQPEDFATYYCQQYSTVPWTFGQGTKVEIKR
5 | > 150 | pY0192 VH W50A (Fab, V domains shown) VH: EVQLVESGGGLVQPGGSLRLSCAASGYTFTNYGINWVRQAPGKGLEWVGAINTYTGEPTYAADFKRRFTFSLDTSKSTAYLQMNSLRAEDTAVYYCAKYPHYYGSSHWYFDVWGQGTL VL: DIQLTQSPSSLSASVGDRVTITCRANEQLSNYLNWYQQKPGKAPKVLIYFTSSLHSGVPSRFSGSGSGTDFTLTISSLQPEDFATYYCQQYSTVPWTFGQGTKVEIKR
6 | > 150 | pY0192 VH W108A (Fab, V domains shown) VH: EVQLVESGGGLVQPGGSLRLSCAASGYTFTNYGINWVRQAPGKGLEWVGWINTYTGEPTYAADFKRRFTFSLDTSKSTAYLQMNSLRAEDTAVYYCAKYPHYYGSSHAYFDVWGQGTL VL: DIQLTQSPSSLSASVGDRVTITCRANEQLSNYLNWYQQKPGKAPKVLIYFTSSLHSGVPSRFSGSGSGTDFTLTISSLQPEDFATYYCQQYSTVPWTFGQGTKVEIKR
7 | > 150 | pY0192 VH Y99A (Fab, V domains shown) VH: EVQLVESGGGLVQPGGSLRLSCAASGYTFTNYGINWVRQAPGKGLEWVGWINTYTGEPTYAADFKRRFTFSLDTSKSTAYLQMNSLRAEDTAVYYCAKAPHYYGSSHWYFDVWGQGTL VL: DIQLTQSPSSLSASVGDRVTITCRANEQLSNYLNWYQQKPGKAPKVLIYFTSSLHSGVPSRFSGSGSGTDFTLTISSLQPEDFATYYCQQYSTVPWTFGQGTKVEIKR
8 | > 150 | pY0192 VH S106A (Fab, V domains shown) VH: EVQLVESGGGLVQPGGSLRLSCAASGYTFTNYGINWVRQAPGKGLEWVGWINTYTGEPTYAADFKRRFTFSLDTSKSTAYLQMNSLRAEDTAVYYCAKYPHYYGSAHWYFDVWGQGTL VL: DIQLTQSPSSLSASVGDRVTITCRANEQLSNYLNWYQQKPGKAPKVLIYFTSSLHSGVPSRFSGSGSGTDFTLTISSLQPEDFATYYCQQYSTVPWTFGQGTKVEIKR
